Experimental findings from patent publication US20060134741 are described below.

Data set [1] relates to sentrin-modified proteins (Sentrin-1 conjugates).
For data set [2], the target named is T1, Sentrinized PML (construct not stated), P29590.
T1 chain: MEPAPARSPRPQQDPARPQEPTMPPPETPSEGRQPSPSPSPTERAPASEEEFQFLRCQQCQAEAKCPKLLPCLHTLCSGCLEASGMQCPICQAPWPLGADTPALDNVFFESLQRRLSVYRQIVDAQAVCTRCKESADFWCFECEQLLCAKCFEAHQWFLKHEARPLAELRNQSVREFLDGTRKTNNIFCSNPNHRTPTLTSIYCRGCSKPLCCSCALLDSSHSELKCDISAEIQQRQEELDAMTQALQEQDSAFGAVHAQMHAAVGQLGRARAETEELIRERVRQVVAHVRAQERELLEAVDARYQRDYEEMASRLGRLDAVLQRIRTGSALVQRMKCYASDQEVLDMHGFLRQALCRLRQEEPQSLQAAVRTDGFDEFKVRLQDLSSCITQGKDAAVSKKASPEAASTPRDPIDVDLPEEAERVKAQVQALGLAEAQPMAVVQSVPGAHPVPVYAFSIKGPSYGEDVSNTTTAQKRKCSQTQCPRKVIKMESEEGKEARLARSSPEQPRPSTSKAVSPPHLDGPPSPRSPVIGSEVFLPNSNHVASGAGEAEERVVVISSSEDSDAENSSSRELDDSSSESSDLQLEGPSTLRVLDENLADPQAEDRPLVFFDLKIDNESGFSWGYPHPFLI

Data set [3] has as its target T2, sentrinized RanGAP (construct not stated), P46060.
T2 chain: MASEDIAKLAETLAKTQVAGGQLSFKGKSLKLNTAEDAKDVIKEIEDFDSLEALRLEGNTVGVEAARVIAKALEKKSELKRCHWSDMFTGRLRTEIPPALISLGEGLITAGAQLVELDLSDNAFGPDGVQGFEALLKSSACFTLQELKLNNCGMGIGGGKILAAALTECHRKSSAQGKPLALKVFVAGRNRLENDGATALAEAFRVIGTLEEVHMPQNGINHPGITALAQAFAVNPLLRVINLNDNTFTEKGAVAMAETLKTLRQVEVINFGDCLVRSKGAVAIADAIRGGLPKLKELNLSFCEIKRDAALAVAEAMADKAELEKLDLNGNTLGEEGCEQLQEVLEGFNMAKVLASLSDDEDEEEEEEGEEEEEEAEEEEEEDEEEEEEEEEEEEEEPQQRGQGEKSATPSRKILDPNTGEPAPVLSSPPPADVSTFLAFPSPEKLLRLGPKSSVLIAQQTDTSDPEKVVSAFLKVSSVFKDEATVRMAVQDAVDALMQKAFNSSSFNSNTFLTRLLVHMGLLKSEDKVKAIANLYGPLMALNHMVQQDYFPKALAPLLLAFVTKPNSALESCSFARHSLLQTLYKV

In the case of HsUlp1 (full length, 371 aa), the “protease activity against sentrin-modified proteins” value in data set [1] was “extensive studies indicated that HsUlp I had no activity against sentrin-modified proteins”.

B1: SENP2 (protein)
chain: MVTSACNGTRNVAPSGEVFSNSSSCELTGSGSWNNMLKLGNKSPNGISDYPKIRVTVTRDQPRRVLPSFGFTLNSEGCNRRPGGRRHSKGNPESSLMWKPQEQAVTEMISEESGKGLRRPHCTVEEGVQKEEREKYRKLLERLKESGHGNSVCPVTSNYHSSQRSQMDTLKTKGWGEEQNHGVKTTQFVPKQYRLVETRGPLCSLRSEKRCSKGKITDTEKMVGIRFENESRRGYQLEPDLSEEVSARLRLGSGSNGLLRRKVSIIETKEKNCSGKERDRRTDDLLELTEDMEKEISNALGHGPQDEILSSAFKLRITRGDIQTLKNYHWLNDEVINFYMNLLVERNKKQGYPALHVFSTFFYPKLKSGGYQAVKRWTKGVNLFEQEIILVPIHRKVHWSLVVIDLRKKCLKYLDSMGQKGHRICEILLQYLQDESKTKRNSDLNLLEWTHHSMKPHEIPQQLNGSDCGMFTCKYADYISRDKPITFTQHQMPLFRKKMVWEILHQQLL
For the molecule B1, the “effect on sentrinized PML” value in data set [2] was “Sentrinized PML, a tumor suppressor that resides in the nucleus, was selectively affected by SENP2”. Besides, the “effect on sentrinized RanGAP” value in data set [3] is “sentrinized RanGAP remained intact”.
